Measurements taken from the supplement of paper PMC9732359.
± gives the uncertainty stated by the source.

Assay: protein stability index of a GFP-peptide fusion (yeast GPS) (PSI 1-4); higher = more stable; sorted into four equal gates, so the index is relative within each strain
Procedure, shortened: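 Tiled 17-residue peptides from yeast proteins were fused downstream of GFP on a plasmid that also expresses Cherry, and the pooled library was carried in yeast. Mid-log cultures grown in leucine-free medium were sorted into four equal gates by GFP/Cherry fluorescence ratio. Plasmids from each gate were PCR-amplified and Illumina-sequenced, and reads were assigned to strains by barcodes. Each peptide's protein stability index is the sum, over gates, of the gate's read frequency multiplied by its gate number.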

Sequence | protein stability index (doa10∆) | protein stability index (pdr5∆) | protein stability index (san1∆) | protein stability index (ubr1∆)
KLVTNVVDPKTSIEKSS [YML103C/NUP188] | 2.31 ± 0.056 | 2.71 ± 0.049 | 2.52 ± 0.069 | 2.62 ± 0.051
KLWRKIARLYSCISISD [RRI2] | 2.87 ± 0.11 | 2.1 ± 0.075 | 2.69 ± 0.064 | 1.61 ± 0.038
KLYVDAVHSIIALSRRF [YDL116W/NUP84] | 2.01 ± 0.077 | 1.81 ± 0.065 | 1.82 ± 0.12 | 1.93 ± 0.064
KLYVSHIQVNQAPKQRR [RPL17A] | 1.89 ± 0.079 | 1.92 ± 0.068 | 2.02 ± 0.14 | 2.08 ± 0.11
KMMSFQANPTEESISKF [RPB5] | 3.02 ± 0.077 | 3.17 ± 0.076 | 2.4 ± 0.2 | 3.15 ± 0.12
KNAANTEGHKGHEELKR [ISW2] | 3.43 ± 0.086 | 3.16 ± 0.081 | 3.2 ± 0.098 | 3.35 ± 0.061
KNHFRKHWQERVKVHFD [RPL13A] | 1.3 ± 0.037 | 1.71 ± 0.05 | 1.47 ± 0.083 | 1.54 ± 0.038
KNIKIIMATNRLDILDP [RPT6] | 2.91 ± 0.14 | 2.55 ± 0.079 | 2.41 ± 0.068 | 3.3 ± 0.058
KNKSGKIFVETKFSKLI [FAS1] | 2.33 ± 0.072 | 2.69 ± 0.076 | 2.3 ± 0.16 | 1.84 ± 0.077
KNKYGEINSEDYDNKTK [SRP68] | 3.23 ± 0.094 | 2.89 ± 0.16 | 3.43 ± 0.06 | 3.14 ± 0.084
KNLKHIDVTFTKVNNQL [RPL9A] | 2.79 ± 0.057 | 2.58 ± 0.053 | 2.52 ± 0.07 | 2.62 ± 0.045
KNREVVQVSKAGGLPMD [RRP45] | 3.04 ± 0.11 | 2.84 ± 0.097 | 2.54 ± 0.095 | 3.28 ± 0.067
KNVENTKNLSILTSKVN [DSN1] | 2.37 ± 0.061 | 2.36 ± 0.049 | 2.53 ± 0.077 | 2.51 ± 0.036
KNYSRPSTAIHTSPHQP [SIR4] | 2.86 ± 0.045 | 2.72 ± 0.044 | 2.65 ± 0.053 | 2.72 ± 0.044
KPAEKNNNETSKPAFSF [YJL041W/NSP1] | 1.65 ± 0.15 | 1.98 ± 0.06 | 2.24 ± 0.16 | 1.64 ± 0.11
KPAFSFGAKPDENKASA [YJL041W/NSP1] | 3.16 ± 0.093 | 3.3 ± 0.074 | 2.76 ± 0.06 | 3.24 ± 0.063
KPETLSIGKNPFNKPNI [SWI3] | 2.85 ± 0.044 | 2.9 ± 0.041 | 2.75 ± 0.033 | 2.99 ± 0.03
KPLTENCKKKKKRKKKN [RMP1] | 2.97 ± 0.19 | 1.89 ± 0.28 | 1.5 ± 0.14 | 3.38 ± 0.19
KPNIILDEDDTNDGIER [RPC31] | 3.42 ± 0.076 | 3.27 ± 0.085 | 3.31 ± 0.051 | 3.27 ± 0.043
KPQFENHVKQFYERLDK [MED11] | 2.87 ± 0.12 | 2.46 ± 0.19 | 2.57 ± 0.088 | 2.17 ± 0.17
KPTREPTPSVKTEPVGT [RPC53] | 3.15 ± 0.22 | 3.06 ± 0.26 | 2.95 ± 0.19 | 3.02 ± 0.21
KQAHEKLDASKKQQAAL [YIL149C/MLP2] | 3.08 ± 0.064 | 2.88 ± 0.052 | 3.25 ± 0.059 | 3 ± 0.057
KQENETMQPPYIQERLK [MED11] | 2.88 ± 0.055 | 3.06 ± 0.054 | 3.19 ± 0.04 | 3.02 ± 0.033

Sequence | protein stability index (doa10∆) | protein stability index (pdr5∆) | protein stability index (san1∆) | protein stability index (ubr1∆)
KQFLTKDLKFPLPHRVQ [RPL20A] | 2.67 ± 0.075 | 2.78 ± 0.057 | 2.86 ± 0.057 | 2.78 ± 0.046
KQIIVTRKAMLDPLEVH [PRP8] | 3.11 ± 0.094 | 3.13 ± 0.071 | 3.16 ± 0.062 | 3.05 ± 0.055
KQLTLLRSKLFQFKLLQ [SMC4] | 1.93 ± 0.051 | 1.88 ± 0.048 | 1.69 ± 0.064 | 2.34 ± 0.038
KRANNIRKFFGLSKEDD [RPS6A] | 3.39 ± 0.17 | 3.22 ± 0.11 | 2.98 ± 0.15 | 3.56 ± 0.11
KRCLFESLSNEAALKAN [RPO31] | – | – | – | 2.84 ± 0.22
KRELKQLLEKAPIPIRE [BRR2] | 1.94 ± 0.05 | 2.22 ± 0.053 | 1.99 ± 0.13 | 1.91 ± 0.061
KRELKRAQEEVKRIQSV [RPT3] | 3.23 ± 0.096 | 3.39 ± 0.14 | 2.91 ± 0.096 | 3.38 ± 0.083
KRIHSVRTRGGNKKYRA [RPS8A] | 2.509 ± 0.024 | 2.621 ± 0.022 | 2.626 ± 0.025 | 2.591 ± 0.018
KRKLLEHRRYDDQLKQR [RPT4] | 2.04 ± 0.27 | 2.1 ± 0.22 | 1.42 ± 0.23 | 1.92 ± 0.17
KRLADGLSVTQKVFVRS [DIS3] | 1.85 ± 0.077 | 2.38 ± 0.076 | 1.93 ± 0.12 | 1.93 ± 0.06
KRMLLSLSEFARRRQPT [SNF2] | 2.26 ± 0.15 | 2.63 ± 0.13 | 1.77 ± 0.25 | 2.58 ± 0.092
KRNGSTLEQKVNLENPI [FAS1] | 2.2 ± 0.098 | 2.37 ± 0.12 | 2.21 ± 0.11 | 3.09 ± 0.089
KRNKLLTIFDSVDESAR [YJL039C/NUP192] | 2.26 ± 0.07 | 2.37 ± 0.072 | 2.32 ± 0.061 | 2.36 ± 0.066
KRRFDPSSSDSNGPRAA [RRP6] | 3.25 ± 0.073 | 3.31 ± 0.089 | 3.21 ± 0.048 | 3.33 ± 0.052
KRTICKKCHRLLWTPKK [RPR2] | 2.42 ± 0.051 | 2.45 ± 0.05 | 2.81 ± 0.048 | 2.26 ± 0.037
KRVSGTSQHSDSLTQNN [YOR098C/NUP1] | 2.5 ± 0.088 | 2.71 ± 0.055 | 2.73 ± 0.072 | 2.68 ± 0.054
KSESPSEVLVDTLDSKS [ISW2] | 2.98 ± 0.067 | 3.11 ± 0.068 | 2.96 ± 0.075 | 3.24 ± 0.056
KSFANHTEDEQIEKKKI [SIR4] | 2.96 ± 0.14 | 2.28 ± 0.087 | 2.66 ± 0.096 | 2.13 ± 0.048
KSGKTIVITSITGGIIE [RRP43] | 1.6 ± 0.072 | 1.84 ± 0.077 | 2.07 ± 0.1 | 1.78 ± 0.1
KSHNAHVRCGTAFALGI [RPN2] | 1.72 ± 0.27 | 2.41 ± 0.1 | 2.18 ± 0.14 | 1.8 ± 0.075
KSLEEQEYAIEMKIGSI [SMC1] | 2.71 ± 0.11 | 3.23 ± 0.18 | 2.67 ± 0.11 | 2.66 ± 0.2
KSNDSEGDFLKSIIGKL [POP1] | 1.28 ± 0.12 | 2.91 ± 0.088 | 1.93 ± 0.11 | 1.3 ± 0.15
